doi:10.1101/2023.04.04.535563 (bioRxiv, 2023)

Target: caleosin 2 (CLO2), Cub fusion (A. thaliana, UniProt Q9FLN9 1-243)
Experiment: two-hybrid

Chain of caleosin 2 (CLO2), Cub fusion (Q9FLN9 whole entry, the tested form may be a part): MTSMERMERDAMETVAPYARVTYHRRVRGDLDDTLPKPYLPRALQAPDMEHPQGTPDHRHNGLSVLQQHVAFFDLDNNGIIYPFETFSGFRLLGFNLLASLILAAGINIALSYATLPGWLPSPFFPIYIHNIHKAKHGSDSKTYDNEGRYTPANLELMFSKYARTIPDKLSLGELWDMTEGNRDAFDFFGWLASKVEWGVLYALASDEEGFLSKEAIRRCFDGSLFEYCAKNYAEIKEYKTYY

B1: autophagy-related protein 8b (ATG8b), NubG fusion (natural protein, A. thaliana, UniProt Q9XEB5 1-117, looked up)
chain: MEKNSFKLSNPLEMRMAESTRIRAKYPERVPVIVEKAGQSDVPDIDKKKYLVPADLTIGQFVYVVRKRIKLGAEKAIFVFVKNTLPPTAALMSAIYEEHKDEDGFLYMTYSGENTFG
- fold weaker β-galactosidase activity (against CLO1, CLO3 and OLE1): 2 fold
